Experimental findings from patent US20160083479A1 (AGENCY FOR SCIENCE TECHNOLOGY AND RESEARCH, published 2016) are described below.

No end group written: not given here. *: point of attachment. Biotin = O=C1N[C@H]2[C@H](CS[C@H]2CCCCC(=O)*)N1

One assay has as its target peptide O28 (human). Kind of assay: titration of purified mAb 2 against peptides, ELISA A450; rank order.
In the next assay the target is T1, peptide P10.
T1 sequence (peptide, biotin at the N-terminus, linked by the SGSG linker): SGSGCIFSPQIEEASQCPD
The assay is described as above.

The next assay addresses T2, peptide P15.
T2 sequence (peptide, biotin at the N-terminus, linked by the SGSG linker): SGSGCIFSPQIEEPSQCPA
Described as above.

In a further assay the target is T3, peptide P17.
T3 sequence (peptide, biotin at the N-terminus, linked by the SGSG linker): SGSGAIEEPSQCPDCVVSA
Described as above.

The target of a further assay is T4, peptide P19.
T4 sequence (peptide, biotin at the N-terminus, linked by the SGSG linker): SGSGQIAEPSQCPDCVVSA
The assay is described as above.

The target in another assay is T5, peptide P20.
T5 sequence (peptide, biotin at the N-terminus, linked by the SGSG linker): SGSGQIEAPSQCPDCVVSA
The assay is described as above.

The target in the next assay is T6, peptide P25.
T6 sequence (peptide, biotin at the N-terminus, linked by the SGSG linker): SGSGQIEEPSQCADCVVSA
Described as above.

The next assay has as its target T7, peptide P7.
T7 sequence (peptide, biotin at the N-terminus, linked by the SGSG linker): SGSGCIFSPQAEEPSQCPD
The description is as above.

A further assay has as its target T8, peptide P9.
T8 sequence (peptide, biotin at the N-terminus, linked by the SGSG linker): SGSGCIFSPQIEAPSQCPD
The assay is described as above.

A further assay addresses T9, peptide O27.
T9 construct: Negative control peptide
T9 peptide: Biotin-SGSGQSEVHCIFSPQIEEP
Kind of assay: Pepscan / alanine scan peptide ELISA on streptavidin plates, A450. Here is the method: Variations of peptides O28 and O29, where each amino acid residue was sequentially substituted for an alanine residue, were synthesised. Streptavidin-coated plates (Pierce/Thermo Scientific, #15520) were blocked with 3% BSA/PBS at room temperature. The peptides were dissolved in DMSO and stored according to manufacturer's recommendation. Streptavidin-coated plates were coated with each peptide (5 μg/mL) overnight at room temperature. Wells were washed before hybridoma supernatant or purified monoclonal antibody was added to the each well. HRP-conjugated anti-mouse antibody was added to detect bound monoclonal antibodies. ELISA substrate (Bio-Rad #172-1067) solution was prepared freshly according to the manufacturer's instructions and added to the wells. Colour change was monitored by eye and the reaction was stopped by adding 100 mM sulphuric acid. Absorbance was read at 450 nm in a microplate reader (SPECTRAmax PLUS³⁸⁴, Molecular Device, U.S.A). The crystal structure of c-Met extracellular domain, accession number 1 SHY, was obtained from Protein Data Base (PDB). Computer imaging of the epitopes were analysed by PyMol (DeLano Scientific LLC, U.S.A) software.
Pepscan analysis was used to determine the region of c-Met α-chain bound by mAb 2. […] Binding of the antibody was detected by colorimetric assay and analysed by absorbance reading at […]. […]

B1: mAb 2 (antibody, IgG1, V domains shown)
VH: QVQLKESGGGLVQPGGSLTLSCATSGFTFTDHYMSWVRQPPGKALEWLAFIRNKAKGYTTEYNASVRGRFTISRDNSQNIVYLQMNTLRTEDSATYYCARDGVGIAYWGQGTLVTVSA
VL: SIVMTQSPLSLPVSLGDQASISCRSSQSLENINGNTYLNWYFQKPGQSPQLLIYRVSNRVSGVLDRFSGSGSGTDFTLKITRVEAEDLGVYFCLQVTHVPWTFGGGTKLEIK
notes: Murine monoclonal antibody purified from ascites (or hybridoma supernatant in the first Pepscan); constant regions are not; also called full length murine mAb 2
As for B1, the Increase mAb 2 binding in ascending order (rank) came out at 11 with peptide O28 (human); 7 with peptide P10; 10 with peptide P15; 5 with peptide P17; 6 in the assay with peptide P19; 9 with peptide P20. The figures for the Increase mAb 2 binding in ascending order (rank) with peptide P25, with peptide P7 and in the assay with peptide P9 were 3, 8 and 4, respectively. Further, the binding result in the assay with peptide O27 is reported as “no binding”.
